Assay results taken from publication PMC2660596.

Molecular target: Bacillus thuringiensis Cry11Ba toxin (Bacillus thuringiensis) (UniProt Q45730)
Assay: ELISA

With “APN2t, truncated 70-kDa AgAPN2 peptide (residues 228 to 843) (domain or fragment)” the Kd was 6.4 nM.
